# Laboratory results as given in patent US7951595B2, “Methods for screening modulators of SLC17-type anion transport activity” (National University Corporation Okayama University, priority 2007, dated 2011).
# T1: human SLC17A9 (Homo sapiens, UniProt Q9BYT1, N228S)
# T1 construct: His6 (from pDEST10 vector); made in house; host or cells: insect cells, baculovirus system (Sf9 named for virus production)
# T1 sequence (Q9BYT1 1-430 isoform Q9BYT1-2 N222S): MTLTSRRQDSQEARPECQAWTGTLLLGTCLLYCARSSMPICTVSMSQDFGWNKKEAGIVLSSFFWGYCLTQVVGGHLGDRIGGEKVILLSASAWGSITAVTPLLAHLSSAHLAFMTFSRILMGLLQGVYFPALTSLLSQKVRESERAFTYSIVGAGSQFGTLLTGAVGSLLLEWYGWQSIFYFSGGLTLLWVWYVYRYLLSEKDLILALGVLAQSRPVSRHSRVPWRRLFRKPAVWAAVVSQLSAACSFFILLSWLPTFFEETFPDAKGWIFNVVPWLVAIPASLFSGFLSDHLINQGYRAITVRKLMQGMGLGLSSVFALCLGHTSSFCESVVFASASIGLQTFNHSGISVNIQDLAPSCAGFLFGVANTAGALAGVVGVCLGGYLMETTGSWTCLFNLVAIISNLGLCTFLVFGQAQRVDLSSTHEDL
# B1: VGLUT3: SLC17 family transporter protein, gene SLC17A8 (protein, UniProt Q8NDX2 1-589, looked up)
# Vesicular glutamate …: MPFKAFDTFKEKILKPGKEGVKNAVGDSLGILQRKIDGTTEEEDNIELNEEGRPVQTSRPSPPLCDCHCCGLPKRYIIAIMSGLGFCISFGIRCNLGVAIVEMVNNSTVYVDGKPEIQTAQFNWDPETVGLIHGSFFWGYIMTQIPGGFISNKFAANRVFGAAIFLTSTLNMFIPSAARVHYGCVMCVRILQGLVEGVTYPACHGMWSKWAPPLERSRLATTSFCGSYAGAVVAMPLAGVLVQYIGWSSVFYIYGMFGIIWYMFWLLQAYECPAAHPTISNEEKTYIETSIGEGANVVSLSKFSTPWKRFFTSLPVYAIIVANFCRSWTFYLLLISQPAYFEEVFGFAISKVGLLSAVPHMVMTIVVPIGGQLADYLRSRQILTTTAVRKIMNCGGFGMEATLLLVVGFSHTKGVAISFLVLAVGFSGFAISGFNVNHLDIAPRYASILMGISNGVGTLSGMVCPLIVGAMTRHKTREEWQNVFLIAALVHYSGVIFYGVFASGEKQEWADPENLSEEKCGIIDQDELAEEIELNHESFASPKKKMSYGATSQNCEVQKKEWKGQRGATLDEEELTSYQNEERNFSTIS
# B2: NPT1: SLC17 family transporter protein, gene SLC17A1 (protein, UniProt Q14916 1-467, looked up)
# Sodium-dependent phosphate …: MQMDNRLPPKKVPGFCSFRYGLSFLVHCCNVIITAQRACLNLTMVVMVNSTDPHGLPNTSTKKLLDNIKNPMYNWSPDIQGIILSSTSYGVIIIQVPVGYFSGIYSTKKMIGFALCLSSVLSLLIPPAAGIGVAWVVVCRAVQGAAQGIVATAQFEIYVKWAPPLERGRLTSMSTSGFLLGPFIVLLVTGVICESLGWPMVFYIFGACGCAVCLLWFVLFYDDPKDHPCISISEKEYITSSLVQQVSSSRQSLPIKAILKSLPVWAISTGSFTFFWSHNIMTLYTPMFINSMLHVNIKENGFLSSLPYLFAWICGNLAGQLSDFFLTRNILSVIAVRKLFTAAGFLLPAIFGVCLPYLSSTFYSIVIFLILAGATGSFCLGGVFINGLDIAPRYFGFIKACSTLTGMIGGLIASTLTGLILKQDPESAWFKTFILMAAINVTGLIFYLIVATAEIQDWAKEKQHTRL
# B3: SLC17A9 protein: purified SLC17A9 membrane protein, vesicular nucleotide transporter (protein, UniProt Q9BYT1 1-436, looked up)
# Voltage-gated purine …: MQPPPDEARRDMAGDTQWSRPECQAWTGTLLLGTCLLYCARSSMPICTVSMSQDFGWNKKEAGIVLSSFFWGYCLTQVVGGHLGDRIGGEKVILLSASAWGSITAVTPLLAHLSSAHLAFMTFSRILMGLLQGVYFPALTSLLSQKVRESERAFTYSIVGAGSQFGTLLTGAVGSLLLEWYGWQSIFYFSGGLTLLWVWYVYRYLLSEKDLILALGVLAQSRPVSRHNRVPWRRLFRKPAVWAAVVSQLSAACSFFILLSWLPTFFEETFPDAKGWIFNVVPWLVAIPASLFSGFLSDHLINQGYRAITVRKLMQGMGLGLSSVFALCLGHTSSFCESVVFASASIGLQTFNHSGISVNIQDLAPSCAGFLFGVANTAGALAGVVGVCLGGYLMETTGSWTCLFNLVAIISNLGLCTFLVFGQAQRVDLSSTHEDL
# B4: VGLUT2: SLC17 family transporter protein, gene SLC17A6 (protein, UniProt Q9P2U8 1-582, looked up)
# Vesicular glutamate …: MESVKQRILAPGKEGLKNFAGKSLGQIYRVLEKKQDTGETIELTEDGKPLEVPERKAPLCDCTCFGLPRRYIIAIMSGLGFCISFGIRCNLGVAIVDMVNNSTIHRGGKVIKEKAKFNWDPETVGMIHGSFFWGYIITQIPGGYIASRLAANRVFGAAILLTSTLNMLIPSAARVHYGCVIFVRILQGLVEGVTYPACHGIWSKWAPPLERSRLATTSFCGSYAGAVIAMPLAGILVQYTGWSSVFYVYGSFGMVWYMFWLLVSYESPAKHPTITDEERRYIEESIGESANLLGAMEKFKTPWRKFFTSMPVYAIIVANFCRSWTFYLLLISQPAYFEEVFGFEISKVGMLSAVPHLVMTIIVPIGGQIADFLRSKQILSTTTVRKIMNCGGFGMEATLLLVVGYSHTRGVAISFLVLAVGFSGFAISGFNVNHLDIAPRYASILMGISNGVGTLSGMVCPIIVGAMTKNKSREEWQYVFLIAALVHYGGVIFYAIFASGEKQPWADPEETSEEKCGFIHEDELDEETGDITQNYINYGTTKSYGATTQANGGWPSGWEKKEEFVQGEVQDSHSYKDRVDYS
# B5: VGLUT1: SLC17 family transporter protein, gene SLC17A7 (protein, UniProt Q9P2U7 1-560, looked up)
# Vesicular glutamate …: MEFRQEEFRKLAGRALGKLHRLLEKRQEGAETLELSADGRPVTTQTRDPPVVDCTCFGLPRRYIIAIMSGLGFCISFGIRCNLGVAIVSMVNNSTTHRGGHVVVQKAQFSWDPETVGLIHGSFFWGYIVTQIPGGFICQKFAANRVFGFAIVATSTLNMLIPSAARVHYGCVIFVRILQGLVEGVTYPACHGIWSKWAPPLERSRLATTAFCGSYAGAVVAMPLAGVLVQYSGWSSVFYVYGSFGIFWYLFWLLVSYESPALHPSISEEERKYIEDAIGESAKLMNPLTKFSTPWRRFFTSMPVYAIIVANFCRSWTFYLLLISQPAYFEEVFGFEISKVGLVSALPHLVMTIIVPIGGQIADFLRSRRIMSTTNVRKLMNCGGFGMEATLLLVVGYSHSKGVAISFLVLAVGFSGFAISGFNVNHLDIAPRYASILMGISNGVGTLSGMVCPIIVGAMTKHKTREEWQYVFLIASLVHYGGVIFYGVFASGEKQPWAEPEEMSEEKCGFVGHDQLAGSDDSEMEDEAEPPGAPPAPPPSYGATHSTFQPPRPPPPVRDY
# B6: Sialin: SLC17 family transporter protein, gene SLC17A5 (protein, UniProt Q9NRA2 1-495, looked up)
# Sialin: MRSPVRDLARNDGEESTDRTPLLPGAPRAEAAPVCCSARYNLAILAFFGFFIVYALRVNLSVALVDMVDSNTTLEDNRTSKACPEHSAPIKVHHNQTGKKYQWDAETQGWILGSFFYGYIITQIPGGYVASKIGGKMLLGFGILGTAVLTLFTPIAADLGVGPLIVLRALEGLGEGVTFPAMHAMWSSWAPPLERSKLLSISYAGAQLGTVISLPLSGIICYYMNWTYVFYFFGTIGIFWFLLWIWLVSDTPQKHKRISHYEKEYILSSLRNQLSSQKSVPWVPILKSLPLWAIVVAHFSYNWTFYTLLTLLPTYMKEILRFNVQENGFLSSLPYLGSWLCMILSGQAADNLRAKWNFSTLCVRRIFSLIGMIGPAVFLVAAGFIGCDYSLAVAFLTISTTLGGFCSSGFSINHLDIAPSYAGILLGITNTFATIPGMVGPVIAKSLTPDNTVGEWQTVFYIAAAINVFGAIFFTLFAKGEVQNWALNDHHGHRH
# Legend:
# human SLC17A9 = molecular target: T1, human SLC17A9; test: Nucleotide transport by human SLC17A9 reconstituted proteoliposomes (valinomycin-induced membrane potential, radiolabelled substrate); type: biochemical
# Experimental: (§1) 10 μg of purified SLC17A9 and 0.5 mg of soybean-derived lipids were mixed and incubated at −80° C. for 5 minutes or more. The mixture was thawed quickly by holding the tube in the hands, and was diluted 60-fold with a buffer solution containing 20 mM MOPS-Tris (pH 7.0), 0.15M sodium acetate, 2 mM magnesium acetate and 0.5 mM DTT. This dilution was centrifuged at 200,000×g at 4° C. for one hour, the supernatant was discarded, and the precipitate was resuspended in a buffer solution containing 20 mM MOPS-Tris (pH 7.0), 0.15M sodium acetate, 2 mM magnesium acetate and 0.5 mM DTT, to obtain SLC17A9 reconstituted proteoliposomes. As a control, liposomes without SLC17A9 were used.
# The nucleotide transport activity was measured by the following procedure. The reconstituted proteoliposomes were incubated in a buffer solution containing 20 mM MOPS-Tris (pH 7.0), 0.15M potassium acetate, 2 mM magnesium acetate and 4 mM potassium chloride, at 27° C. for 2 minutes, and valinomycin was added thereto to a final concentration of 2 μM. The mixture was incubated for further 2 minutes. The point of addition of 0.1 mM [α-^32P]ATP (3.7 GBq/mmol) was defined as the initiation of activity measurement. At a predetermined time point, 130 μL of the reaction liquid was recovered and centrifuged through a Sephadex G-50 (fine) spin column at 760×g for 2 minutes. The uptake of ATP was measured by measuring the radioactivity included in the reaction liquid that had passed through the column using a liquid scintillation counter. In the measurement of the transport activity for ADP and GTP, [2,8-^3H]ADP (0.37 GBq/mmol) and [α-^32P]GTP (3.7 GBq/mmol) were used instead of ATP as the substrate.
# In an experiment for an inhibitor, a predetermined concentration of an inhibitor was added upon incubation of the proteoliposomes.
# [1] = test system: SLC17 family transporter proteins; test: ATP uptake by other SLC17 family proteins reconstituted like SLC17A9; type: biochemical; conditions: 0.1 mM [α-32P]ATP, uptake after 2 minutes, relative to SLC17A9 protein
# Experimental: as §1
# The nucleotide transport activity was measured by the following procedure. The reconstituted proteoliposomes were incubated in a buffer solution containing 20 mM MOPS-Tris (pH 7.0), 0.15M potassium acetate, 2 mM magnesium acetate and 4 mM potassium chloride, at 27° C. for 2 minutes, and valinomycin was added thereto to a final concentration of 2 μM. The mixture was incubated for further 2 minutes. […] At a predetermined time point, 130 μL of the reaction liquid was recovered and centrifuged through a Sephadex G-50 (fine) spin column at 760×g for 2 minutes.
# Each of the transporter proteins that belong to the SLC17 family was purified in the same manner as in the case of SLC17A9, and was reconstituted according to the technique of Example 11.
molecule,measurement,setting,value
Cc1cc(-c2ccc(/N=N/c3ccc4c(S(=O)(=O)O)cc(S(=O)(=O)O)c(N)c4c3O)c(C)c2)ccc1/N=N/c1ccc2c(S(=O)(=O)O)cc(S(=O)(=O)O)c(N)c2c1O [Evans Blue],IC50,"human SLC17A9; SLC17A9 reconstituted proteoliposomes, FIG. 17B",40 nM
C=C1[C@@H]2CC[C@H]3[C@]4(C)C[C@H](O[C@@H]5O[C@H](CO)[C@@H](OS(=O)(=O)O)[C@H](OS(=O)(=O)O)[C@H]5OC(=O)CC(C)C)C[C@@H](C(=O)O)[C@H]4CC[C@]3(C2)[C@H]1O [atractyloside],effect of addition on the ATP uptake,"human SLC17A9; atractyloside 200 μM, with or without Mg2+, FIG. 17(C)","Only when Mg^2+ was present, the ATP uptake was inhibited"
Cl [chloride ions],chloride ion concentration at which ATP uptake activity reached a steady state,"human SLC17A9; chloride ions at various concentrations, FIG. 14",4 mM
CC(C)[C@@H]1NC(=O)[C@H](C)OC(=O)[C@@H](C(C)C)NC(=O)[C@@H](C(C)C)OC(=O)[C@H](C(C)C)NC(=O)[C@H](C)OC(=O)[C@@H](C(C)C)NC(=O)[C@@H](C(C)C)OC(=O)[C@H](C(C)C)NC(=O)[C@H](C)OC(=O)[C@@H](C(C)C)NC(=O)[C@@H](C(C)C)OC1=O [valinomycin],effect on uptake of radioactive ATP,"human SLC17A9; ATP 100 μM, valinomycin 2 μM, FIG. 13(B)",activated
B1,ATP Transport (%),[1],7.1 ± 2.1%
B2,ATP Transport (%),[1],2.0 ± 1.1%
B3,ATP Transport (%),[1],100.0%
B4,ATP Transport (%),[1],0.1 ± 0.2%
B5,ATP Transport (%),[1],1.7 ± 0.7%
B6,ATP Transport (%),[1],2.1 ± 0.8%
